Residue numbers refer to the chain shown, from its start.
Legend:
Details in all cases: one partner purified
[1] = target: T1, human programmed cell death protein 1 C93S (aa 24-167) (Homo sapiens, UniProt Q15116, C93S); experiment: SPR; BreviA on Carterra LSA: Fab from ammonium sulfate precipitate of Brevibacillus supernatant immobilised on NiHC200M sensor; hPD-1 (1-1024 nM) or mPD-1-Fc (4-1024 nM) as analyte, fourfold dilution series, no regeneration; HBS-EP pH 7.4, 25 °C; medians of spots
T1 construct: residues of the TEV site may be left after cleavage; also called hPD-1; human PD-1; source: Expi293F, transfected, purified (Protein A, TEV cleavage of Fc, Protein A + Ni-Sepharose, SEC; monomer fractions)
T1 sequence (Q15116 24-167 C93S): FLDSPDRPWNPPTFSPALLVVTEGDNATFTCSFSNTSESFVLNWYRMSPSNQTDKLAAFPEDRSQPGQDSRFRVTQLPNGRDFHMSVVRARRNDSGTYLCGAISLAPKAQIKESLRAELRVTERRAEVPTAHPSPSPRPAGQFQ

[2] = target: T2, mouse programmed cell death protein 1 C60S (aa 25-167) Fc fusion protein (Mus musculus, UniProt Q02242, stabilised); experiment: as above
T2 construct: the Fc was not cleaved; also called mPD-1-Fc; mPD-1 Fc fusion protein; source: Expi293F, transfected, purified (Protein A, SEC; dimeric fraction)

[3] = target: T3, human programmed cell death protein 1 (hPD-1) C93S (aa 24-167) (Homo sapiens, UniProt Q15116, C93S); experiment: SPR; Carterra LSA; Fab from the ammonium sulfate precipitate of the culture supernatant immobilised on a NiHC200M chip; hPD-1 (1-1024 nM) or mPD-1-Fc (4-1024 nM) as analyte, fourfold dilution series, no regeneration; HBS-EP pH 7.4, 25 °C; medians over the spots of a construct, KD = koff/kon
T3 construct: made as a fusion with a TEV site and human Fc; the Fc was cut off with TEV protease; source: Expi293F, purified (Protein A, TEV cleavage of Fc, SEC; monomer fractions); not shown: Fc (human), C-terminal, cleaved
T3 sequence (Q15116 24-167 C93S): as above
Method in brief: (§1)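 On a Carterra LSA at 25 °C, duplicate captures of Fabs were made on a NiHC200M chip; the Fabs came from Brevibacillus culture supernatants, were precipitated with ammonium sulfate and were redissolved in HBS-EP. Fourfold series of human PD-1 (1–1024 nM) or mouse PD-1-Fc (4–1024 nM) were passed over without regeneration, with 10 min association and 5 min dissociation. Binders that were not confirmed were assigned kon 10^3 […] and koff 10^−2 s^−1. The kdka model, run with slow- or fast-dissociation settings and keeping the better fit, gave the rates, and KD was taken as koff/kon from the median values for each construct.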

[4] = target: T4, mouse programmed cell death protein 1 Fc fusion protein (mPD-1-Fc), mPD-1 C60S (aa 25-167) (Mus musculus, UniProt Q02242, stabilised); experiment: as above
T4 construct: not cleaved; source: Expi293F, purified (Protein A, SEC; dimeric fraction); not shown: Fc (human), C-terminal, kept
Method in brief: as §1

B1: toripalimab Fab (wild-type) (Fab, V domains shown)
VH: QGQLVQSGAEVKKPGASVKVSCKASGYTFTDYEMHWVRQAPIHGLEWIGVIESETGGTAYNQKFKGRVTITADKSTSTAYMELSSLRSEDTAVYYCAREGITTVATTYYWYFDVWGQGTTVTVSS
VL: DVVMTQSPLSLPVTLGQPASISCRSSQSIVHSNGNTYLEWYLQKPGQSPQLLIYKVSNRFSGVPDRFSGSGSGTDFTLKISRVEAEDVGVYYCFQGSHVPLTFGQGTKLEIK
notes: toripalimab Fab heavy chain (VH-CH1); toripalimab Fab light chain (VL-CL); Residue numbers count consecutively from residue 1 of each chain; also called anti-hPD-1 antibody toripalimab; source: Brevibacillus, secreted into culture supernatant, ammonium sulfate precipitate (not further purified); not shown: 6xHis, C-terminal, kept; 6xHN, C-terminal, kept
koff [1]: < 1e-05 s⁻¹

B2: toripalimab Fab L.V99G (Fab, V domains shown)
VH: B1 VH
VL: B1 VL with V99G
notes: as the heavy chain of m1; as the light chain of m1, with the stated change; source: Brevibacillus, secreted into culture supernatant, ammonium sulfate precipitate (not further purified); not shown: 6xHis, C-terminal, kept; 6xHN, C-terminal, kept
fold increase in affinity against the wild type [2]: > 100 fold

B3: toripalimab Fab L.P100H (Fab, V domains shown)
VH: B1 VH
VL: B1 VL with P100H
notes: as for B2
fold increase in affinity against the wild type [2]: > 100 fold

B4: toripalimab Fab L.L101D (Fab, V domains shown)
VH: B1 VH
VL: B1 VL with L101D
notes: as the heavy chain of Sm3; light chain of Sm3 with this change; numbers count from the chain's first residue; source: Brevibacillus, culture supernatant (ammonium sulfate precipitate); not shown: 6xHis, C-terminal, kept; 6xHN, C-terminal, kept
Kd [3]: < 1.66 nM | koff [3]: < 1e-05 s⁻¹ | kon [3]: 6020 M⁻¹ s⁻¹ | Kd [4]: 172 nM | koff [4]: 0.0046 s⁻¹ | kon [4]: 26800 M⁻¹ s⁻¹

B5: toripalimab Fab L.L101E (Fab, V domains shown)
VH: B1 VH
VL: B1 VL with L101E
notes: as for B4
Kd [3]: 13.6 nM | koff [3]: 0.000124 s⁻¹ | kon [3]: 9060 M⁻¹ s⁻¹ | Kd [4]: 95.6 nM | koff [4]: 0.00392 s⁻¹ | kon [4]: 41000 M⁻¹ s⁻¹

B6: toripalimab Fab L.L101F (Fab, V domains shown)
VH: B1 VH
VL: B1 VL with L101F
notes: as for B4
Kd [3]: 7.96 nM | koff [3]: 0.000141 s⁻¹ | kon [3]: 17700 M⁻¹ s⁻¹ | Kd [4]: 1020 nM | koff [4]: 0.0615 s⁻¹ | kon [4]: 60300 M⁻¹ s⁻¹

B7: toripalimab Fab L.L101G (Fab, V domains shown)
VH: B1 VH
VL: B1 VL with L101G
notes: as for B4
Kd [3]: < 1.95 nM | koff [3]: < 1e-05 s⁻¹ | kon [3]: 5120 M⁻¹ s⁻¹ | Kd [4]: 40.1 nM | koff [4]: 0.000405 s⁻¹ | kon [4]: 10100 M⁻¹ s⁻¹

B8: toripalimab Fab L.L101I (Fab, V domains shown)
VH: B1 VH
VL: B1 VL with L101I
notes: as for B4
Kd [3]: < 1.55 nM | koff [3]: < 1e-05 s⁻¹ | kon [3]: 6430 M⁻¹ s⁻¹ | Kd [4]: 34.3 nM | koff [4]: 0.00056 s⁻¹ | kon [4]: 16300 M⁻¹ s⁻¹

B9: toripalimab Fab L.L101K (Fab, V domains shown)
VH: B1 VH
VL: B1 VL with L101K
notes: as for B4
Kd [3]: 492 nM | koff [3]: 0.00276 s⁻¹ | kon [3]: 5600 M⁻¹ s⁻¹ | Kd [4]: 606 nM | koff [4]: 0.0212 s⁻¹ | kon [4]: 35000 M⁻¹ s⁻¹

B10: toripalimab Fab L.L101M (Fab, V domains shown)
VH: B1 VH
VL: B1 VL with L101M
notes: as for B4
Kd [3]: < 1.08 nM | koff [3]: < 1e-05 s⁻¹ | kon [3]: 9290 M⁻¹ s⁻¹ | Kd [4]: 24.5 nM | koff [4]: 0.000673 s⁻¹ | kon [4]: 27500 M⁻¹ s⁻¹

B11: toripalimab Fab L.L101N (Fab, V domains shown)
VH: B1 VH
VL: B1 VL with L101N
notes: as for B4
Kd [3]: < 1.23 nM | koff [3]: < 1e-05 s⁻¹ | kon [3]: 8160 M⁻¹ s⁻¹ | Kd [4]: 134 nM | koff [4]: 0.00447 s⁻¹ | kon [4]: 33300 M⁻¹ s⁻¹

B12: toripalimab Fab L.L101Q (Fab, V domains shown)
VH: B1 VH
VL: B1 VL with L101Q
notes: as for B4
Kd [3]: 2.78 nM | koff [3]: 2.5e-05 s⁻¹ | kon [3]: 8990 M⁻¹ s⁻¹ | Kd [4]: 265 nM | koff [4]: 0.0143 s⁻¹ | kon [4]: 54000 M⁻¹ s⁻¹

B13: toripalimab Fab H.E54A (Fab, V domains shown)
VH: B1 VH with E54A
VL: B1 VL
notes: heavy chain of Sm3 with this change; numbers count from the chain's first residue; as the light chain of Sm3; source: Brevibacillus, culture supernatant (ammonium sulfate precipitate); not shown: 6xHis, C-terminal, kept; 6xHN, C-terminal, kept
Kd [3]: 1.23 nM | koff [3]: 2.52e-05 s⁻¹ | kon [3]: 20400 M⁻¹ s⁻¹ | Kd [4]: 202 nM | koff [4]: 0.00772 s⁻¹ | kon [4]: 38300 M⁻¹ s⁻¹

B14: toripalimab Fab L.L101S (Fab, V domains shown)
VH: B1 VH
VL: B1 VL with L101S
notes: as for B4
Kd [3]: 4.13 nM | koff [3]: 2.42e-05 s⁻¹ | kon [3]: 5870 M⁻¹ s⁻¹ | Kd [4]: 48.2 nM | koff [4]: 0.000659 s⁻¹ | kon [4]: 13700 M⁻¹ s⁻¹

B15: toripalimab Fab L.L101T (Fab, V domains shown)
VH: B1 VH
VL: B1 VL with L101T
notes: as for B4
Kd [3]: 5.05 nM | koff [3]: 3.03e-05 s⁻¹ | kon [3]: 6000 M⁻¹ s⁻¹ | Kd [4]: 116 nM | koff [4]: 0.00235 s⁻¹ | kon [4]: 20400 M⁻¹ s⁻¹

B16: toripalimab Fab L.L101V (Fab, V domains shown)
VH: B1 VH
VL: B1 VL with L101V
notes: as for B4
Kd [3]: 2.41 nM | koff [3]: 1.35e-05 s⁻¹ | kon [3]: 5600 M⁻¹ s⁻¹ | Kd [4]: 90.5 nM | koff [4]: 0.00146 s⁻¹ | kon [4]: 16100 M⁻¹ s⁻¹

B17: toripalimab Fab L.L101Y (Fab, V domains shown)
VH: B1 VH
VL: B1 VL with L101Y
notes: as for B4
Kd [3]: < 1.18 nM | koff [3]: < 1e-05 s⁻¹ | kon [3]: 8500 M⁻¹ s⁻¹ | Kd [4]: 125 nM | koff [4]: 0.00356 s⁻¹ | kon [4]: 28400 M⁻¹ s⁻¹

B18: toripalimab Fab L.T102A (Fab, V domains shown)
VH: B1 VH
VL: B1 VL with T102A
notes: as for B4
Kd [3]: < 0.809 nM | koff [3]: < 1e-05 s⁻¹ | kon [3]: 12400 M⁻¹ s⁻¹ | Kd [4]: 115 nM | koff [4]: 0.00395 s⁻¹ | kon [4]: 34200 M⁻¹ s⁻¹

B19: toripalimab Fab L.T102Y (Fab, V domains shown)
VH: B1 VH
VL: B1 VL with T102Y
notes: as for B4
Kd [3]: < 0.441 nM | koff [3]: < 1e-05 s⁻¹ | kon [3]: 22700 M⁻¹ s⁻¹ | Kd [4]: 78.4 nM | koff [4]: 0.00282 s⁻¹ | kon [4]: 36000 M⁻¹ s⁻¹

Source: paper PMC10663500, “High-throughput analysis system of interaction kinetics for data-driven antibody design” (Scientific Reports, 2023)
